Measurements taken from US20260166139A1.
Values joined by “and” are separate entries in the source; they are usually repeats but may differ in a detail not shown here. Identical values can stand only once.

How the values were obtained:
[1] = biological target: monkey CTLA4-hFc (monkey); experiment: ELISA, coat monkey CTLA4-hFc 0.25 ug/ml; antibody 1:81 (start 1 ug/ml)
[2] = biological target: monkey CTLA4-hFc (monkey); experiment: ELISA, coat monkey CTLA4-hFc 0.25 ug/ml; antibody 1:9 (start 1 ug/ml)
[3] = biological target: murine CTLA4 (murine) (UniProt P09793); experiment: ELISA, coat murine CTLA4 0.5 ug/ml; antibody 0.1 ug/ml
[4] = biological target: murine CTLA4 (murine) (UniProt P09793); experiment: ELISA, coat murine CTLA4 0.5 ug/ml; antibody 0.3 ug/ml
[5] = biological target: monkey CTLA4-hFc (monkey); experiment: ELISA, coat monkey CTLA4-hFc 0.25 ug/ml; antibody 1:3 (start 1 ug/ml)
[6] = biological target: monkey CTLA4-hFc (monkey); experiment: ELISA, coat monkey CTLA4-hFc 0.25 ug/ml; antibody 1:729 (start 1 ug/ml)
[7] = biological target: murine CTLA4 (murine) (UniProt P09793); experiment: ELISA, coat murine CTLA4 0.5 ug/ml; antibody 0.01 ug/ml
[8] = biological target: monkey CTLA4-hFc (monkey); experiment: ELISA on coated CTLA4, source Monkey (row of 8D2H3L3)
[9] = biological target: monkey CTLA4-hFc (monkey); experiment: ELISA, coat monkey CTLA4-hFc 0.25 ug/ml; antibody 1:243 (start 1 ug/ml)
[10] = biological target: monkey CTLA4-hFc (monkey); experiment: ELISA on coated CTLA4, source Monkey (row of 8D2H2L2)
[11] = biological target: murine CTLA4 (murine) (UniProt P09793); experiment: ELISA, coat murine CTLA4 0.5 ug/ml; antibody 0.003 ug/ml
[12] = biological target: murine CTLA4 (murine) (UniProt P09793); experiment: ELISA on coated CTLA4, source Mouse (row of 8D2)
[13] = biological target: monkey CTLA4-hFc (monkey); experiment: ELISA, coat monkey CTLA4-hFc 0.25 ug/ml; antibody 1:27 (start 1 ug/ml)
[14] = biological target: murine CTLA4 (murine) (UniProt P09793); experiment: ELISA on coated CTLA4, source Mouse (row of 8D2H1L1)
[15] = biological target: murine CTLA4 (murine) (UniProt P09793); experiment: ELISA, coat murine CTLA4 0.5 ug/ml; antibody 0 ug/ml (blank)
[16] = biological target: murine CTLA4 (murine) (UniProt P09793); experiment: ELISA, coat murine CTLA4 0.5 ug/ml; antibody 1 ug/ml
[17] = biological target: monkey CTLA4-hFc (monkey); experiment: ELISA, coat monkey CTLA4-hFc 0.25 ug/ml; antibody 0 (blank)
[18] = biological target: murine CTLA4 (murine) (UniProt P09793); experiment: ELISA, coat murine CTLA4 0.5 ug/ml; antibody 0.001 ug/ml
[19] = biological target: murine CTLA4 (murine) (UniProt P09793); experiment: ELISA on coated CTLA4, source Mouse (row of 8D2(Re))
[20] = biological target: monkey CTLA4-hFc (monkey); experiment: ELISA, coat monkey CTLA4-hFc 0.25 ug/ml; antibody 1 ug/ml
[21] = biological target: murine CTLA4 (murine) (UniProt P09793); experiment: ELISA, coat murine CTLA4 0.5 ug/ml; antibody 0.03 ug/ml
[22] = biological target: CTLA4 antigen on the surface of 293F-CTLA4 host cells (UniProt P16410); experiment: flow cytometry, mean fluorescence intensity with the isotype control (unlabeled 293F bar: 3.62)
CTLA4 antigen on the surface of 293F-CTLA4 host cells, sequence (P16410 36-223 limits assumed): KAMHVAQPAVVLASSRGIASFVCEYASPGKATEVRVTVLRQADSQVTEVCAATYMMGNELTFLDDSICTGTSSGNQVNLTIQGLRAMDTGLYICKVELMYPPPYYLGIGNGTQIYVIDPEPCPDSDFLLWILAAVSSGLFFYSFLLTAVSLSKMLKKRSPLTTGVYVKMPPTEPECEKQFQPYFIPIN

control antibody 10D1
absorbance at 450 nm [1]: 0.19 and 0.191
absorbance at 450 nm [2]: 0.845 and 0.868
absorbance at 450 nm [3]: 2.43 and 2.54
absorbance at 450 nm [4]: 2.85 and 2.9
absorbance at 450 nm [5]: 1.34
absorbance at 450 nm [6]: 0.063 and 0.067
absorbance at 450 nm [7]: 0.673 and 0.794
EC50 [8]: 0.258 nM
absorbance at 450 nm [9]: 0.104 and 0.108
EC50 [10]: 0.258 nM
absorbance at 450 nm [11]: 0.292 and 0.328
EC50 [12]: 0.062 nM
absorbance at 450 nm [13]: 0.429 and 0.402
EC50 [14]: 0.062 nM
absorbance at 450 nm [15]: 0.046 and 0.05
absorbance at 450 nm [16]: 3 and 2.98
absorbance at 450 nm [17]: 0.049
absorbance at 450 nm [18]: 0.136 and 0.142
EC50 [19]: 0.062 nM
absorbance at 450 nm [20]: 1.79 and 1.85
absorbance at 450 nm [21]: 1.51

isotype control (antibody)
MFI [22]: 4.95
